# In patent publication US20260258084A1, “New Peptides as Selective IL-23 Receptor Antagonists” (Sanofi, priority 2022, published 2026):
# Starred links: 1 amine or outer side, 2 acyl side, 3 side chain; linkers in the order of their positions; H or OH if unused. Positions of bridges follow the written chain, without caps; N, C: chain ends. Non-standard residues stand in square brackets, D forms with d. Yde = (2S)-2-amino-3-[4-[2-(dimethylamino)ethoxy]phenyl]propanoic acid, CN(C)CCOc1ccc(C[C@H](N[*:1])C(=O)[*:2])cc1; NdmK = (2S)-6-amino-2-(dimethylamino)hexanoic acid, CN(C)[C@@H](CCCCN[*:3])C(=O)[*:2]; Nmha = 6-(methylamino)hexanoic acid, CN(CCCCCC(=O)[*:2])[*:1]; Phe(4-OMe) = COc1ccc(C[C@H](N[*:1])C(=O)[*:2])cc1; Trp(7-Me) = Cc1cccc2c(C[C@H](N)C(=O)O)c[nH]c12; αMeLys(Me2) = CN(C)CCCC[C@](C)(N)C(=O)O; 2Nal = N[C@@H](Cc1ccc2ccccc2c1)C(=O)O; εLys = N[C@@H](CCCCN[*:1])C(=O)[*:2]; AEF = NCCOc1ccc(C[C@H](N)C(=O)O)cc1; 3Pal = N[C@@H](Cc1cccnc1)C(=O)O; αMeL = CC(C)C[C@](C)(N)C(=O)O; Nmapt = not defined here; Thp = NC1(C(=O)O)CCOCC1; Aib = CC(C)(N)C(=O)O; Ahx = NCCCCCC(=O)O; Ava = NCCCCC(=O)O; Sar = CNCC(=O)O
# T1: IL-23 receptor on the surface of HEK-Blue IL-23 cells (UniProt Q5VWK5 24-629, limits assumed)
# T1 sequence (looked up): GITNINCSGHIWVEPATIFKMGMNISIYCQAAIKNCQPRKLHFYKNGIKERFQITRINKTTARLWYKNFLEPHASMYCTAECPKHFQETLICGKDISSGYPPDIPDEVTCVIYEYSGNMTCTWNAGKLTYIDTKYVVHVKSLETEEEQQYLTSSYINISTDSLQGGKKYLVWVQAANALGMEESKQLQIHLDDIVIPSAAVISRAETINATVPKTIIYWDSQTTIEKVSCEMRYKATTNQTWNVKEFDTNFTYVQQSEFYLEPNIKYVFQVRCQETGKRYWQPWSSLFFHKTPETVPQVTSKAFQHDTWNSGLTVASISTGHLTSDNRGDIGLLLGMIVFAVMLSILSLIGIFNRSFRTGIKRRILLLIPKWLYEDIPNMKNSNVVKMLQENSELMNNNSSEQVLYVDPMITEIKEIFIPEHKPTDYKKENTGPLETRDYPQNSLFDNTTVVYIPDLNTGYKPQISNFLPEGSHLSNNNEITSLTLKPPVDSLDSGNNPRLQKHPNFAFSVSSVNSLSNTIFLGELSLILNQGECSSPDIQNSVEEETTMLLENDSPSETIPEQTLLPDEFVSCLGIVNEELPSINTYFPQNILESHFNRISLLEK
# Target: T1, IL-23 receptor on the surface of …
# Assay: cell-based or functional assay
row,Binder,pSTAT3 (nM)
1,[Ava]CNTWQC[Yde][2Nal][αMeL]ENN-NH2 (lactam N-11; disulfide 2-7; SMILES CC(C)C[C@]1(C)NC(=O)[C@H](Cc2ccc3ccccc3c2)NC(=O)[C@H](Cc2ccc(OCCN(C)C)cc2)NC(=O)[C@@H]2CSSC[C@H](NC(=O)CCCCNC(=O)CC[C@@H](C(=O)N[C@@H](CC(N)=O)C(=O)N[C@@H](CC(N)=O)C(N)=O)NC1=O)C(=O)N[C@@H](CC(N)=O)C(=O)N[C@@H]([C@@H](C)O)C(=O)N[C@@H](Cc1c[nH]c3ccccc13)C(=O)N[C@@H](CCC(N)=O)C(=O)N2) [Compound of SEQ ID NO: 27],1.71 nM
2,"[Ava]C[εLys](Ac)WQC[Yde][2Nal][Aib]ENG-NH2 (lactam N-10; disulfide 2-6; also: Cys2 carboxyl bonded to Lys3 epsilon-NH2 (isopeptide), Lys3 alpha-N acetylated) [Compound of SEQ ID NO: 29]",8.16 nM
3,[Ahx]CNTWQC[Phe(4-OMe)][2Nal][Aib]DNN-NH2 (lactam N-11; disulfide 2-7; SMILES COc1ccc(C[C@@H]2NC(=O)[C@@H]3CSSC[C@H](NC(=O)CCCCCNC(=O)C[C@@H](C(=O)N[C@@H](CC(N)=O)C(=O)N[C@@H](CC(N)=O)C(N)=O)NC(=O)C(C)(C)NC(=O)[C@H](Cc4ccc5ccccc5c4)NC2=O)C(=O)N[C@@H](CC(N)=O)C(=O)N[C@@H]([C@@H](C)O)C(=O)N[C@@H](Cc2c[nH]c4ccccc24)C(=O)N[C@@H](CCC(N)=O)C(=O)N3)cc1) [Compound of SEQ ID NO: 3],17.2 nM
4,"[Ava]C[εLys](Ac)WQC[Yde][2Nal][Thp]ENG-NH2 (lactam N-10; disulfide 2-6; also: Cys2 carboxyl bonded to Lys3 epsilon-NH2 (isopeptide), Lys3 alpha-N acetylated) [Compound of SEQ ID NO: 30]",5.41 nM
5,"[Ava]C[εLys](Ac)WQC[Yde][2Nal][αMeL]ENG-NH2 (lactam N-10; disulfide 2-6; also: Cys2 carboxyl bonded to Lys3 epsilon-NH2 (isopeptide), Lys3 alpha-N acetylated) [Compound of SEQ ID NO: 31]",5.23 nM
6,"[Ava]C[εLys](Ac)WQC[Yde][2Nal][Aib]EAG-NH2 (lactam N-10; disulfide 2-6; also: Cys2 carboxyl bonded to Lys3 epsilon-NH2 (isopeptide), Lys3 alpha-N acetylated) [Compound of SEQ ID NO: 32]",20.5 nM
7,"[Ava]C[εLys](Ac)WQC[Yde][2Nal][Thp]EA[dL]-NH2 (lactam N-10; disulfide 2-6; also: Cys2 carboxyl bonded to Lys3 epsilon-NH2 (isopeptide), Lys3 alpha-N acetylated) [Compound of SEQ ID NO: 33]",53.8 nM
8,[Nmapt]CKWQC[AEF][2Nal][Thp]EA[dL]-NH2 (lactam N-10; disulfide 2-6; not fully specified (residue 3); printed as Nmapt(§1)-C(§3)(@2)-K[aAc](@3)-W-Q-C(@2)-Yae-Nal-Thp-E(§1)-A-(D-Leu)-NH2; reading uncertain; also: Cys2 carboxyl joined to Lys3 epsilon-NH2 (isopeptide bond)) [Compound of SEQ ID NO: 34],13.3 nM
9,[Ava]C[NdmK]WK(Ac)C[Yde][2Nal][αMeLys(Me2)]EN[3Pal][Sar]-NH2 (lactam N-10; disulfide 2-6) [Compound of SEQ ID NO: 36],13.9 nM
10,[Ava]CNTWK(Ac)C[Yde][2Nal][Aib]EN[3Pal]I-NH2 (lactam N-11; disulfide 2-7; also: places amidation at position 13) [Compound of SEQ ID NO: 37],2 nM
11,"[Ava]CNTWK(Ac)C[Yde][2Nal][Aib]ENNI-NH2 (lactam N-11; disulfide 2-7; also: places amidation at position 13, §1 lactam bridge; @2 disulfide bridge) [Compound of SEQ ID NO: 38]",11.9 nM
12,"[Ava]CNTWQC[Yde][2Nal][Aib]ENNI-NH2 (lactam N-11; disulfide 2-7; SMILES CC[C@H](C)[C@H](NC(=O)[C@H](CC(N)=O)NC(=O)[C@H](CC(N)=O)NC(=O)[C@@H]1CCC(=O)NCCCCC(=O)N[C@H]2CSSC[C@H](NC(=O)[C@H](CCC(N)=O)NC(=O)[C@H](Cc3c[nH]c4ccccc34)NC(=O)[C@H]([C@@H](C)O)NC(=O)[C@H](CC(N)=O)NC2=O)C(=O)N[C@@H](Cc2ccc(OCCN(C)C)cc2)C(=O)N[C@@H](Cc2ccc3ccccc3c2)C(=O)NC(C)(C)C(=O)N1)C(N)=O, §1 lactam bridge; @2 disulfide bridge) [Compound of SEQ ID NO: 57]",5.5 nM
13,[Ahx]E[Ava]WQT[Phe(4-OMe)][2Nal][Aib]DNN-NH2 (lactam N-10; ester 2-6; SMILES COc1ccc(C[C@@H]2NC(=O)[C@H]3NC(=O)[C@H](CCC(N)=O)NC(=O)[C@H](Cc4c[nH]c5ccccc45)NC(=O)CCCCNC(=O)[C@H](CCC(=O)O[C@@H]3C)NC(=O)CCCCCNC(=O)C[C@@H](C(=O)N[C@@H](CC(N)=O)C(=O)N[C@@H](CC(N)=O)C(N)=O)NC(=O)C(C)(C)NC(=O)[C@H](Cc3ccc4ccccc4c3)NC2=O)cc1) [Compound of SEQ ID NO: 39],26.4 nM
14,[Ava]CNTWQC[Phe(4-OMe)][2Nal][Aib]ENG-NH2 (lactam N-11; disulfide 2-7; SMILES COc1ccc(C[C@@H]2NC(=O)[C@@H]3CSSC[C@H](NC(=O)CCCCNC(=O)CC[C@@H](C(=O)N[C@@H](CC(N)=O)C(=O)NCC(N)=O)NC(=O)C(C)(C)NC(=O)[C@H](Cc4ccc5ccccc5c4)NC2=O)C(=O)N[C@@H](CC(N)=O)C(=O)N[C@@H]([C@@H](C)O)C(=O)N[C@@H](Cc2c[nH]c4ccccc24)C(=O)N[C@@H](CCC(N)=O)C(=O)N3)cc1) [Compound of SEQ ID NO: 4],34.8 nM
15,[Nmha]CNTWQC[Yde][2Nal][αMeL]DN[dL]-NH2 (lactam N-11; disulfide 2-7; SMILES CC(C)C[C@@H](NC(=O)[C@H](CC(N)=O)NC(=O)[C@@H]1CC(=O)N(C)CCCCCC(=O)N[C@H]2CSSC[C@H](NC(=O)[C@H](CCC(N)=O)NC(=O)[C@H](Cc3c[nH]c4ccccc34)NC(=O)[C@H]([C@@H](C)O)NC(=O)[C@H](CC(N)=O)NC2=O)C(=O)N[C@@H](Cc2ccc(OCCN(C)C)cc2)C(=O)N[C@@H](Cc2ccc3ccccc3c2)C(=O)N[C@@](C)(CC(C)C)C(=O)N1)C(N)=O) [Compound of SEQ ID NO: 40],50.8 nM
16,[Ava]CNT[Trp(7-Me)]QC[Yde][2Nal][Aib]ESH-NH2 (lactam N-11; disulfide 2-7; SMILES Cc1cccc2c(C[C@@H]3NC(=O)[C@H]([C@@H](C)O)NC(=O)[C@H](CC(N)=O)NC(=O)[C@@H]4CSSC[C@H](NC(=O)[C@H](CCC(N)=O)NC3=O)C(=O)N[C@@H](Cc3ccc(OCCN(C)C)cc3)C(=O)N[C@@H](Cc3ccc5ccccc5c3)C(=O)NC(C)(C)C(=O)N[C@H](C(=O)N[C@@H](CO)C(=O)N[C@@H](Cc3c[nH]cn3)C(N)=O)CCC(=O)NCCCCC(=O)N4)c[nH]c12) [Compound of SEQ ID NO: 43],1.31 nM
17,[Nmapt]CKWQC[AEF][2Nal][αMeL]EA[dL]-NH2 (lactam N-10; disulfide 2-6; not fully specified (residue 3); printed as Nmapt(§1)-C(§3)(@2)-K[aAc](@3)-W-Q-C(@2)-Yae-Nal-Mle-E(§1)-A-(D-Leu)-NH2; reading uncertain; also: Cys2 carboxyl joined to Lys3 epsilon-NH2 (isopeptide bond)) [Compound of SEQ ID NO: 44],42.5 nM
18,[Ava]CNT[Trp(7-Me)]K(Ac)C[Yde][2Nal][Aib]ENH[Sar]-NH2 (lactam N-11; disulfide 2-7; SMILES CC(=O)NCCCC[C@@H]1NC(=O)[C@H](Cc2c[nH]c3c(C)cccc23)NC(=O)[C@H]([C@@H](C)O)NC(=O)[C@H](CC(N)=O)NC(=O)[C@@H]2CSSC[C@H](NC1=O)C(=O)N[C@@H](Cc1ccc(OCCN(C)C)cc1)C(=O)N[C@@H](Cc1ccc3ccccc3c1)C(=O)NC(C)(C)C(=O)N[C@H](C(=O)N[C@@H](CC(N)=O)C(=O)N[C@@H](Cc1c[nH]cn1)C(=O)N(C)CC(N)=O)CCC(=O)NCCCCC(=O)N2) [Compound of SEQ ID NO: 45],0.67 nM
